Assay results as given in patent US9957297B2, “Template-fixed peptidomimetics as inhibitors of FPR1” (POLYPHOR AG, priority 2011, dated 2018).
Bridges are numbered along the chain shown (N, C = ends). [ ]: non-standard residue; d: D form. Phe(4-CF3) = N[C@@H](Cc1ccc(C(F)(F)F)cc1)C(=O)O; hSer = N[C@@H](CCO)C(=O)O; Dab = NCC[C@H](N)C(=O)O

T1: Formyl-Peptide Receptor 1 (UniProt P21462 1-350, limits assumed)
T1 sequence (looked up): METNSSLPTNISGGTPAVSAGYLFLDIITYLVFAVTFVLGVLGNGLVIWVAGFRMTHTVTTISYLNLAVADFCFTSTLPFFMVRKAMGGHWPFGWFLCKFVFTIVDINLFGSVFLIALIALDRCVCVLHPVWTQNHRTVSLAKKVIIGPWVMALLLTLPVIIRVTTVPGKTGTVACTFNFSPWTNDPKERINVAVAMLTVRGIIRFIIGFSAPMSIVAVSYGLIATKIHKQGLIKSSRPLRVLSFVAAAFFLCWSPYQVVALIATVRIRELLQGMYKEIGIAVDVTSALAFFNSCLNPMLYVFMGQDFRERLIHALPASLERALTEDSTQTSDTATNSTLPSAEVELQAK

B1: cyclo(-Tyr-His-Lys-Cys-Trp-Gly-^DAla-Trp-Thr-Ile-Cys-Tyr-Glu-Lys-^DPro-Pro-) (peptide)
peptide: cyclo(YHKCWG[dA]WTICYEK[dP]P)
modifications: disulfide 4-11
SMILES: CC[C@H](C)[C@@H]1NC(=O)[C@H]([C@@H](C)O)NC(=O)[C@H](Cc2c[nH]c3ccccc23)NC(=O)[C@@H](C)NC(=O)CNC(=O)[C@H](Cc2c[nH]c3ccccc23)NC(=O)[C@@H]2CSSC[C@H](NC1=O)C(=O)N[C@@H](Cc1ccc(O)cc1)C(=O)N[C@@H](CCC(=O)O)C(=O)N[C@@H](CCCCN)C(=O)N1CCC[C@@H]1C(=O)N1CCC[C@H]1C(=O)N[C@@H](Cc1ccc(O)cc1)C(=O)N[C@@H](Cc1c[nH]cn1)C(=O)N[C@@H](CCCCN)C(=O)N2
B2: cyclo(-Tyr-His-Lys-Cys-His-Gly-^DPro-Trp-Thr-Ile-Cys-Tyr-Hse-Lys-^DPro-Pro-) (peptide)
peptide: cyclo(YHKCHG[dP]WTICY[hSer]K[dP]P)
modifications: disulfide 4-11
SMILES: CC[C@H](C)[C@@H]1NC(=O)[C@H]([C@@H](C)O)NC(=O)[C@H](Cc2c[nH]c3ccccc23)NC(=O)[C@H]2CCCN2C(=O)CNC(=O)[C@H](Cc2c[nH]cn2)NC(=O)[C@@H]2CSSC[C@H](NC1=O)C(=O)N[C@@H](Cc1ccc(O)cc1)C(=O)N[C@@H](CCO)C(=O)N[C@@H](CCCCN)C(=O)N1CCC[C@@H]1C(=O)N1CCC[C@H]1C(=O)N[C@@H](Cc1ccc(O)cc1)C(=O)N[C@@H](Cc1c[nH]cn1)C(=O)N[C@@H](CCCCN)C(=O)N2
B3: cyclo(-Tyr-His-Lys-Cys-His-Gly-^DAla-Trp-Thr-Ile-Cys-Tyr-Glu-Lys-^DPro-Pro-) (peptide)
peptide: cyclo(YHKCHG[dA]WTICYEK[dP]P)
modifications: disulfide 4-11
SMILES: CC[C@H](C)[C@@H]1NC(=O)[C@H]([C@@H](C)O)NC(=O)[C@H](Cc2c[nH]c3ccccc23)NC(=O)[C@@H](C)NC(=O)CNC(=O)[C@H](Cc2c[nH]cn2)NC(=O)[C@@H]2CSSC[C@H](NC1=O)C(=O)N[C@@H](Cc1ccc(O)cc1)C(=O)N[C@@H](CCC(=O)O)C(=O)N[C@@H](CCCCN)C(=O)N1CCC[C@@H]1C(=O)N1CCC[C@H]1C(=O)N[C@@H](Cc1ccc(O)cc1)C(=O)N[C@@H](Cc1c[nH]cn1)C(=O)N[C@@H](CCCCN)C(=O)N2
B4: cyclo(-Tyr-His-Lys-Cys-His-Gly-^DPro-Phe(4CF3)-Thr-Ile-Cys-Tyr-Glu-Lys-^DPro-Pro-) (peptide)
peptide: cyclo(YHKCHG[dP][Phe(4-CF3)]TICYEK[dP]P)
modifications: disulfide 4-11
SMILES: CC[C@H](C)[C@@H]1NC(=O)[C@H]([C@@H](C)O)NC(=O)[C@H](Cc2ccc(C(F)(F)F)cc2)NC(=O)[C@H]2CCCN2C(=O)CNC(=O)[C@H](Cc2c[nH]cn2)NC(=O)[C@@H]2CSSC[C@H](NC1=O)C(=O)N[C@@H](Cc1ccc(O)cc1)C(=O)N[C@@H](CCC(=O)O)C(=O)N[C@@H](CCCCN)C(=O)N1CCC[C@@H]1C(=O)N1CCC[C@H]1C(=O)N[C@@H](Cc1ccc(O)cc1)C(=O)N[C@@H](Cc1c[nH]cn1)C(=O)N[C@@H](CCCCN)C(=O)N2
B5: cyclo(-Dab-His-Lys-Cys-Trp-Gly-^DPro-Trp-Thr-Ile-Cys-Tyr-Glu-Lys-^DPro-Pro-) (peptide)
peptide: cyclo([Dab]HKCWG[dP]WTICYEK[dP]P)
modifications: disulfide 4-11
SMILES: CC[C@H](C)[C@@H]1NC(=O)[C@H]([C@@H](C)O)NC(=O)[C@H](Cc2c[nH]c3ccccc23)NC(=O)[C@H]2CCCN2C(=O)CNC(=O)[C@H](Cc2c[nH]c3ccccc23)NC(=O)[C@@H]2CSSC[C@H](NC1=O)C(=O)N[C@@H](Cc1ccc(O)cc1)C(=O)N[C@@H](CCC(=O)O)C(=O)N[C@@H](CCCCN)C(=O)N1CCC[C@@H]1C(=O)N1CCC[C@H]1C(=O)N[C@@H](CCN)C(=O)N[C@@H](Cc1c[nH]cn1)C(=O)N[C@@H](CCCCN)C(=O)N2
B6: cyclo(-Tyr-His-Lys-Cys-His-Gly-^DPro-Trp-Thr-Val-Cys-Tyr-Glu-Lys-^DPro-Pro-) (peptide)
peptide: cyclo(YHKCHG[dP]WTVCYEK[dP]P)
modifications: disulfide 4-11
SMILES: CC(C)[C@@H]1NC(=O)[C@H]([C@@H](C)O)NC(=O)[C@H](Cc2c[nH]c3ccccc23)NC(=O)[C@H]2CCCN2C(=O)CNC(=O)[C@H](Cc2c[nH]cn2)NC(=O)[C@@H]2CSSC[C@H](NC1=O)C(=O)N[C@@H](Cc1ccc(O)cc1)C(=O)N[C@@H](CCC(=O)O)C(=O)N[C@@H](CCCCN)C(=O)N1CCC[C@@H]1C(=O)N1CCC[C@H]1C(=O)N[C@@H](Cc1ccc(O)cc1)C(=O)N[C@@H](Cc1c[nH]cn1)C(=O)N[C@@H](CCCCN)C(=O)N2
B7: cyclo(-Tyr-His-Lys-Cys-Trp-Gly-^DPro-Trp-Thr-Ile-Cys-Tyr-Dab-Lys-^DPro-Pro-) (peptide)
peptide: cyclo(YHKCWG[dP]WTICY[Dab]K[dP]P)
modifications: disulfide 4-11
SMILES: CC[C@H](C)[C@@H]1NC(=O)[C@H]([C@@H](C)O)NC(=O)[C@H](Cc2c[nH]c3ccccc23)NC(=O)[C@H]2CCCN2C(=O)CNC(=O)[C@H](Cc2c[nH]c3ccccc23)NC(=O)[C@@H]2CSSC[C@H](NC1=O)C(=O)N[C@@H](Cc1ccc(O)cc1)C(=O)N[C@@H](CCN)C(=O)N[C@@H](CCCCN)C(=O)N1CCC[C@@H]1C(=O)N1CCC[C@H]1C(=O)N[C@@H](Cc1ccc(O)cc1)C(=O)N[C@@H](Cc1c[nH]cn1)C(=O)N[C@@H](CCCCN)C(=O)N2
B8: cyclo(-Tyr-His-Ala-Cys-Trp-Gly-^DPro-Trp-Thr-Ile-Cys-Tyr-Gln-Lys-^DPro-Glu-) (peptide)
peptide: cyclo(YHACWG[dP]WTICYQK[dP]E)
modifications: disulfide 4-11
SMILES: CC[C@H](C)[C@@H]1NC(=O)[C@H]([C@@H](C)O)NC(=O)[C@H](Cc2c[nH]c3ccccc23)NC(=O)[C@H]2CCCN2C(=O)CNC(=O)[C@H](Cc2c[nH]c3ccccc23)NC(=O)[C@@H]2CSSC[C@H](NC1=O)C(=O)N[C@@H](Cc1ccc(O)cc1)C(=O)N[C@@H](CCC(N)=O)C(=O)N[C@@H](CCCCN)C(=O)N1CCC[C@@H]1C(=O)N[C@@H](CCC(=O)O)C(=O)N[C@@H](Cc1ccc(O)cc1)C(=O)N[C@@H](Cc1c[nH]cn1)C(=O)N[C@@H](C)C(=O)N2
B9: cyclo(-His-His-Lys-Cys-His-Gly-^DPro-Trp-Thr-Ile-Cys-Tyr-Glu-Lys-^DPro-Pro-) (peptide)
peptide: cyclo(HHKCHG[dP]WTICYEK[dP]P)
modifications: disulfide 4-11
SMILES: CC[C@H](C)[C@@H]1NC(=O)[C@H]([C@@H](C)O)NC(=O)[C@H](Cc2c[nH]c3ccccc23)NC(=O)[C@H]2CCCN2C(=O)CNC(=O)[C@H](Cc2c[nH]cn2)NC(=O)[C@@H]2CSSC[C@H](NC1=O)C(=O)N[C@@H](Cc1ccc(O)cc1)C(=O)N[C@@H](CCC(=O)O)C(=O)N[C@@H](CCCCN)C(=O)N1CCC[C@@H]1C(=O)N1CCC[C@H]1C(=O)N[C@@H](Cc1c[nH]cn1)C(=O)N[C@@H](Cc1c[nH]cn1)C(=O)N[C@@H](CCCCN)C(=O)N2
B10: cyclo(-Tyr-His-Lys-Cys-His-Gly-^DPro-Trp-Thr-Leu-Cys-Tyr-Glu-Lys-^DPro-Pro-) (peptide)
peptide: cyclo(YHKCHG[dP]WTLCYEK[dP]P)
modifications: disulfide 4-11
SMILES: CC(C)C[C@@H]1NC(=O)[C@H]([C@@H](C)O)NC(=O)[C@H](Cc2c[nH]c3ccccc23)NC(=O)[C@H]2CCCN2C(=O)CNC(=O)[C@H](Cc2c[nH]cn2)NC(=O)[C@@H]2CSSC[C@H](NC1=O)C(=O)N[C@@H](Cc1ccc(O)cc1)C(=O)N[C@@H](CCC(=O)O)C(=O)N[C@@H](CCCCN)C(=O)N1CCC[C@@H]1C(=O)N1CCC[C@H]1C(=O)N[C@@H](Cc1ccc(O)cc1)C(=O)N[C@@H](Cc1c[nH]cn1)C(=O)N[C@@H](CCCCN)C(=O)N2

What follows are binders tested against T1, Formyl-Peptide Receptor 1 (assay: cell-based or functional assay).
In the case of B1, the “β-Arrestin IC50” value is reported as 69 nM.
In the case of B2, the “β-Arrestin IC50” value is reported as 138 nM.
B3 was tested, and the “β-Arrestin IC50” value was 77 nM.
B4 was tested, and the “β-Arrestin IC50” value was 114 nM.
With B5 the “β-Arrestin IC50” value was 248 nM.
In the case of B6, the “β-Arrestin IC50” value is reported as 232 nM.
With B7 the “β-Arrestin IC50” value was 633 nM.
In the case of B8, the “β-Arrestin IC50” value is reported as 60 nM.
B9 was tested, and the “β-Arrestin IC50” value was 239 nM.
With B10 the “β-Arrestin IC50” value was 153 nM.
